Experiment: yeast display, Sf9 membrane polyspecificity reagent, FACS + sequencing; frameworks hold sequencing errors
Summary of the method: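 A synthetic nanobody library was expressed on Saccharomyces cerevisiae BJ5465 by galactose induction for 36–48 hours. The library was stained for 1 hour at 4 °C with 10% biotinylated, detergent-solubilized Sf9 membrane reagent and enriched with streptavidin microbeads before FACS. Low and high (top ~1%) gates were set on anti-HA fluorescence for expression and streptavidin fluorescence for reagent binding, and each polyreactivity label reflects the gate of origin.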

QVQLVESGGGIVQAGGSLRLSWAASGFIFNNYAMGWYRQAPGKERELVAAITGGGSTNYADSVKGRFTISRDNAKNTVYLQMNSLKPEDTAVYYCNAEGVWWSTRYDSWGQGTQVTVSS
polyreactivity (PSR sort gate): low polyreactivity

QVQLVESGGGLVQAGASLRLSCAASGGILRQNTMGWYRQAPGKERELVAAISSSGGRTYYADSVKGRFTISRDNAKNTVYLQMNSLKPEDTAVYYCNVPAKRYPYYIRQSTVSPGNYWGQGTKVTVSS
polyreactivity (PSR sort gate): high polyreactivity

QVQLVESGGGLVQAGGSLRLICAASGLIFVRNVMGWYRQAPGKERELVAAINLSTGSTYYADSVKGRFTISRDNAKNTVYLQMNCLKPEDTAVYYCAAEYLYWDDLQDYEYWGQGTQVTVSS
polyreactivity (PSR sort gate): low polyreactivity

QVQLVESGGGLVQAGGSLRLSCAASGSTFAYNDMGWYRQAPGKERDLVADIRYGGNTNYADSVKGRFTISRDNAKNTDYFQMNSLKPVDTSVYYCATDGYRSDVYHPDYRYDYWGQCTQVTVSS
polyreactivity (PSR sort gate): low polyreactivity

QVQLVESGGGLVQAGGSLRLSCAASGPTFYKYAMGWYRQAPGKEREFVATITRRGGSTYYADSVKGRFTISRDNAKNTVYLQMNSLNPEDTAVYYCAKEIFLKGPDGHDYWGQGTQVTVSS
polyreactivity (PSR sort gate): low polyreactivity

QVQLVESGGGLVQAGGSLRLSCAASGNTFGYYAMGWYRQAPGKERELVAAITWNGDRTYYADSVKGRFTISRDNAKNTVYLQMNSLKPEDTAVYYCNKVNPYRHGYWGQGTQVTVSS
polyreactivity (PSR sort gate): high polyreactivity

QVQLVESGGGLVQAGGSLRLSCAASGRIFDVYAKGWYRQAPGKERELFAAISKSDGRTYYADSVKGRFTISRDNAKNTVYLQMNSLKPEDTAVYYCNVRAYGARAGTKMYYWGQGTQVNVSS
polyreactivity (PSR sort gate): low polyreactivity

QVQLVESGGGLVQAGGSLRLSCAASGSTFWPYAMGWYRPAPGKERELVAAITNSGGSTYYADSVKGRFTISRDNAKYTVYLQMNSLKPEDTAVYYCAVRGVIYSYTPVNTYDYWGQGTQVTVSS
polyreactivity (PSR sort gate): low polyreactivity

QVQLVESGGGLVQAGGSLRLSCAAYGRIFSYYAMGWYRQAPGKERELVAASSGNGGSTYYADSVKGRFTISRDHAKNTVYLQMNSLKPEDTAVYYCAAVWWSSDWASLYPYSYDHWGQVTQVTVSS
polyreactivity (PSR sort gate): low polyreactivity

QVQIVESGGGLVQAGGSLRLSCAASGRIFDDYAMGWYRQAPGKEREFVAAISTSGGSTYYADSVMGRFTISRDNAKNTVYLKMNSLKPEDTAVYYCNKYGYYGWFGSRYWHDYWGQGTQVTVAS
polyreactivity (PSR sort gate): high polyreactivity

QVQLVESGGGLVQAGGILLLSCAASGGTFENYAMGWYIQAPGKERELVAAISSGGSTNYADSVKGRFTISRDNAKNTVYLQMNRLKPEDTAVYYCARYRVWGSNGHKLFHYDYWGQGTQVTVSS
polyreactivity (PSR sort gate): low polyreactivity

QVQLGESGGGLVQSGGSLRLSCAASGYIFNHNAMGWYRQAPGKEWELVAGISIGGSTYYADSVKGRFTISRDNAKNTVYLQMNRLIPEDTAVYYCNTQPPLIYRGVKSDYSGQGTQVTVSS
polyreactivity (PSR sort gate): low polyreactivity

QVQLLESGGGLVQAGGSLRLSCAASGRIFDPYAMGWYRQAPGKERELVAAITGSGDGTYYADTVKGRYTISRYNAKNTVYLQMNRLKPEDTAVYYCAAVGRDRFVIHDYWGQGTQVTVSS
polyreactivity (PSR sort gate): low polyreactivity

QVQLVESGGGLVQAGGSLRLSCAASGSNIKYYAMGWYRQAPGKERELVAAISWRGGRTYADSVKGRFTISRDNAKNTVYLQMNSLKPEDTAVYYCATAQTSITGRVYYWGQGTQVTVSS
polyreactivity (PSR sort gate): high polyreactivity

QVQLEESGGGLVQAGGSLRLSCAASGSTFDRNTMGWYRQAPGKERELVAAITWSSGSTYYADSVKGRFTISRDNAKNTVYLQMNSLKPEDTAVYYCAADPIRYRSRHKYGYWGQGTQVTVSS
polyreactivity (PSR sort gate): low polyreactivity

QVQLVESGGGLVQAGGSLRLICAASGFIFRRYDMGWYRQAPGKERELVATITASVGSTNYADSVKGRFTISRDNAKNTVYLQMNSLKPEDTAVYYCATDIIGAIRVWDHTRMDYWGQGTQVTVSS
polyreactivity (PSR sort gate): low polyreactivity

QVQLVESWGGLVQAVGSLRLTCAASGVIFAIYAIGLYRQAAGKEREMVSSIRWSSGRTYYPDSVKGRFTISRDNAKNTVYLQMNSLKPEDTAVYNCAATPSIFTIHRQDYDYWGQGTQVTVSS
polyreactivity (PSR sort gate): high polyreactivity

QVQLVESGGGLVQAGGSLRLSCAASGRIFTGNSMGWYRQAPGKERELVAAITSSGGSTYYADSVKGRFTISRDNAKNTVYLQMNSLKPDDTAVYYCAALYSSWWSWYYYWGQGTQVTVSS
polyreactivity (PSR sort gate): high polyreactivity

QVQLVESVGGLDQAGGSLRLRCAASGFIVGYYAMGWYRQAPGKEWEFVAAISWTGGNTYYADSVKGRFTISRDNAKNTVSLQLNSLKPEDTAVYYCNVVVSGYADRDGYNYWGQRTQVTVSS
polyreactivity (PSR sort gate): high polyreactivity

QVQLVESGGGLVQAGGSLRLSCAASGRIFKYYAMGWYRQAPGTERELVAAITSGGSTYYADSVKGRFTISRDNAKNTVYLQMNSLKPEDTAVYYCNADGYLSYAFDYWGQGTQVTVSS
polyreactivity (PSR sort gate): low polyreactivity

QVQLVESGGGLVQAGGSLRLSCAASGLIFYKYAMGWYRPAPGKERELVAAISSSGGSTYYADSVKGRFTISRDNAKNTVYLQMNSLKPEDTAVYYCAARTNRRGYNYWGQGTQVTVSS
polyreactivity (PSR sort gate): high polyreactivity

QVQLVESGGGLVQAGGSLRLSCAASGLTFGYYDMGRYRQAPGKERELVAAITSGGTTNYADSVKGRFTISRDNAKNTVYLQMNSQKPEDNAVYYCNADYYSRIVGVRIYDYWGQGTQVTVSS
polyreactivity (PSR sort gate): low polyreactivity

QVQLVESGGGLVQAGGSLRLSCAASGFNFNYNAMGRYREAPGKERELVAAISTSGSSTYYADSVKGRFTISRDNAKNTVYLQMNSLKPEDTAVYYCAARRSTRHRYRVGTCYKYDYWGQGTQVTVSS
polyreactivity (PSR sort gate): high polyreactivity

QVQLVESGGGLVQAGGSLRLRSAASGRTFVPYHMGCYRQAPGKERELVADISSGDSTNYTDSVKGRFTISRDNAKNTVYLQMNSLKPEDTAVYFCAADLTYTMDHWGLGTQVTVSS
polyreactivity (PSR sort gate): low polyreactivity

QVQLVESGGGLVQAAGSLRLSCAASGFTIAHYAMGRYSHAPGKERELVAGISRSGGSTYYADSVKGRFTISRDNAKNTVYLQMNILKPEDTAVYYCATVTYLKRVRYQSGYDSWGQGTQVTVSS
polyreactivity (PSR sort gate): low polyreactivity

QVQLVESGGGLVQAGGSLRLSCAASGIIFRYNTMGWYRQAPGKERELVAAISKRGGSTYYADSVKGRFTISRDNAKNTVYLQMNSLKPEDTAVYYCAARYYSASYYNYGYWGQGTQVTVSS
polyreactivity (PSR sort gate): high polyreactivity

QVQLVESGGGLVQAGGSLRLSCAASGSIFYYYTMGWYRQAPGKERELVAAINSGGNTYYADSVKGRFTISRDNAKNTVYLQMNSLKPEDTAVYYCAAGPLYYDYDYWGQGTQVTVSS
polyreactivity (PSR sort gate): low polyreactivity

QVQLVESGGGLVQAGGSLRLSCAASGRIFTRNAMRWYRQAPGKEREFVAAISHSGGSTYADSVKGRFTISRDNAKNTVFLQMNSLKPEDTAVFYCAAEWSSLNFDYWGQGTQVTVSS
polyreactivity (PSR sort gate): low polyreactivity

QVQLVESGGGLVQAGGSLRLSCAASGRTFNVYAMGWYRQAPGKERELVAVITNGGSTNYADSVKGRFTISRDNAKNTVYLQMNSLKPEDTAVYYCAGDYYASLTREDRDDYWGQGTQVTVSS
polyreactivity (PSR sort gate): low polyreactivity

QVQLGESGGGLVQAGGSLRLICAASGRTFKKYPMGWYRQAPGKERDVVAAISWSGGTTYYAHSEKGRFTISRDTAKNTVYLQMNSLKPEDTAVYYSAARVSRTGHGYYYYWGQVTQVTVSS
polyreactivity (PSR sort gate): high polyreactivity

HVQIVESGGGLVQAGGSLRLSCADSGSTFLGYDMGWFRQAPGKVRELVATISKSGGSTHYADSVKGRFTISRDNAKNTVSLQMNSLKPEETAVYYCAADYYPRYYKNTGEYDYWGQGTQVTVSS
polyreactivity (PSR sort gate): low polyreactivity

QVQLVESGGGLVQAGGSLRLSCAASGSIFTENAMGWYRQPPGKERELVATITITGSTNYADSVKGRFTISRDNAKKTVYLQMNSLKPADTAVYYCNADLYIAFSASAYDYWGQGTQVTVSS
polyreactivity (PSR sort gate): low polyreactivity

QVQLVESGGGLVQAGGSLSLSCAASGSTYARYTMGWYRQAPGKERELVAAISGRGGSTYYADSVKGRFTISRDNAKNTVYLQMNSLKPEDTAVYYCAAHDTYHSYGLYSWGQGTQVTVSS
polyreactivity (PSR sort gate): low polyreactivity

QVQLVESVGGLVQAGGSLRLSCAASGFIFKGNAMGWYRQAPGKERELVAAITNRGGGTYYADSVKGRFTISRDNAKNTVYLQMNSLKPEDTAVYYCAKAYTRPFHPYDYWGQGTQVTVSS
polyreactivity (PSR sort gate): high polyreactivity

QVQLVESGGGLVQAGGSLRLSCAASGRIFRHNAMGWYRQAPGKERELVDAITSRGGTYNAHSVKGRFTISRDNAKITVFLQMTSLNPEETAVYFCNADEALYSSGNKYDYWGQGTQVSVSS
polyreactivity (PSR sort gate): low polyreactivity

QVQLVESGGGLVQAGGSLRLSCAASGFIFFAYAMGWYRQAPGKERELVAAISRTGGSTYYADSVKGRFTISRDNAKNTVYLEMNSLKPEDTAVYYCAAVVSRTYQWWTYDYWGQGTQVTVSS
polyreactivity (PSR sort gate): high polyreactivity

QVQLVESGGGLVQAGGSLRLSCAASGRIFKYYAMGWYRQAPGKERELVARISSSGGSTYYADSVKGRFTISRDNAKNTVYLQMNSLKPEDTAVYYCNARYYSTKYFLGDYWGQGTQVTVSS
polyreactivity (PSR sort gate): high polyreactivity

QVQLVESGGGLVQAGGSLRLSCAASGRIFGINAMGSYRQAPGKERELVAAINWSGGSTYYADSVKGRFTISRDNAKNTVYLQMNSLKPEDTAVYYCAAQKYKRVGYWGQGTQVTVSS
polyreactivity (PSR sort gate): high polyreactivity

QVQLVESGGGLVQAGGSLRISCDASGSTFSRYTLGWYRQAPVKEREMVAAISYRGGSTYYADSVKGRFTISRDNAKNTVYLQMNSLKPEDSAVYYCNADVPRIPYPDMEYWGQGTQVTVSS
polyreactivity (PSR sort gate): low polyreactivity

QVQLVESGGGLVQAGGSLRLSCAASGFIFYKYAMGWYRQAPGKEREFVAAISSRGSRTYYADSVKGRFTISRDNAKNTVYLQMNSLKPEDTAVYYCAAGYWARLYDYDYWGQGTQVTVSS
polyreactivity (PSR sort gate): high polyreactivity

QVQLVESGGGLVQAGGSLRLSCAASGRIFRRNAMGWYRQAPGKERDLVAAITYSGTRTYYADSVKGRFTISRDNAKITVYLQMNSLKPEDTAVYYCNAGVGYFVGTYYGFLPYDYWGQGTQVTVSS
polyreactivity (PSR sort gate): high polyreactivity

QVQLVESGGGLVQAGGSLRLSCAASGSIFTWYAMGWYRQAPGKERELVARINVSAGITYYADSVKGRFTISRDNAKNTVYLQMNSLKPEDTAVYYCAATGWRRPKHNYWGQGTQVTVSS
polyreactivity (PSR sort gate): low polyreactivity

QVQLVESGGGLVQAGGSLRLSCAASGLTFPWYAMGWYRQAPGKERELVAGISWSGGSTYYADSVKGRFTNSRDNAKNTVYLQMNSLKPEDTAVYYCKLVKTTSTLGKRRYDYWGQGTQVTVSS
polyreactivity (PSR sort gate): high polyreactivity

Source: the nanobody polyreactivity screen of Harvey et al. (2022)
